Biological target: the molecule itself
Assay: SEC

B1: PikAIV TE wild type (thioesterase domain of the pikromycin polyketide synthase PikAIV) (domain or fragment, Streptomyces venezuelae ATCC 15439, UniProt Q9ZGI2 1057-1346, looked up)
chain: AGMFRALFRQAVEDDRYGEFLDVLAEASAFRPQFASPEACSERLDPVLLAGGPTDRAEGRAVLVGCTGTAANGGPHEFLRLSTSFQEERDFLAVPLPGYGTGTGTGTALLPADLDTALDAQARAILRAAGDAPVVLLGHSGGALLAHELAFRLERAHGAPPAGIVLVDPYPPGHQEPIEVWSRQLGEGLFAGELEPMSDARLLAMGRYARFLAGPRPGRSSAPVLLVRASEPLGDWQEERGDWRAHWDLPHTVADVPGDHFTMMRDHAPAVAEAVLSWLDAIEGIEGAGK
Which “stoichiometry N” value does the source give for B1 here?
The value was 2.
